Laboratory results: US11994512B2, “Single-cell genomic methods to generate ex vivo cell systems that recapitulate in vivo biology with improved fidelity” (Massachusetts Institute of Technology, priority 2018, dated 2024)

B1: Q05186 (protein, UniProt Q05186 1-325, looked up)
chain: MARGGRLGLALGLLLALVLALRAKPTVRKERVVRPDSELGERPPEDNQSFQYDHEAFLGKEDSKTFDQLSPDESKERLGKIVDRIDSDGDGLVTTEELKLWIKRVQKRYIYDNVAKVWKDYDRDKDEKISWEEYKQATYGYYLGNPAEFHDSSDHHTFKKMLPRDERRFKASDLDGDLTATREEFTAFLHPEEFEHMKEIVVLETLEDIDKNGDGFVDQDEYIADMFSHEDNGPEPDWVLSEREQFNDFRDLNKDGKLDKDEIRHWILPQDYDHAQAEARHLVYESDKNKDEMLTKEEILDNWNMFVGSQATNYGEDLTKNHDEL
modifications: full-length
B2: Q07797 (protein, UniProt Q07797 1-577, looked up)
chain: MALLWLLSVFLLVPGTQGTEDGDMRLVNGASANEGRVEIFYRGRWGTVCDNLWNLLDAHVVCRALGYENATQALGRAAFGPGKGPIMLDEVECTGTESSLASCRSLGWMVSRCGHEKDAGVVCSNDTTGLHILDLSGELSDALGQIFDSQQGCDLFIQVTGQGYEDLSLCAHTLILRTNPEAQALWQVVGSSVIMRVDAECMPVVRDFLRYFYSRRIEVSMSSVKCLHKLASAYGATELQDYCGRLFATLLPQDPTFHTPLDLYAYARATGDSMLEDLCVQFLAWNFEPLTQSESWSAVPTTLIQALLPKSELAVSSELDLLKAVDQWSTETIASHEDIERLVEQVRFPMMLPQELFELQFNLSLYQDHQALFQRKTMQALEFHTVPVEVLAKYKGLNLTEDTYKPRLYTSSTWSSLVMASTWRAQRYEYNRYNQLYTYGYGSVARYNSYQSFQTPQHPSFLFKDKQISWSATYLPTMQSCWNYGFSCTSNELPVLGLTTSSYSNPTIGYENRVLILCGGYSVVDVTSFEGSKAPIPTALDTNSSKTPSLFPCASGAFSSFRVVIRPFYLTNSTDMV
modifications: full-length
B3: Q08652 (protein, UniProt Q08652 1-134, looked up)
chain: MTKDQNGTWEMESNENFEGYMKALDIDFATRKIAVRLTQTKIITQDGDNFKTKTNSTFRNYDLDFTVGVEFDEHTKGLDGRHVKTLVTWEGNTLVCVQKGEKENRGWKQWVEGDKLYLELTCGDQVCRQVFKKK
modifications: full-length
B4: Q33DR2 (protein, UniProt Q33DR2 1-409, looked up)
chain: MAMRWSCWRRGCSWRPTAVGSPRRERPGCVEPLGTRAASDTRAQIPYFSLMKILMSASPTMHSISQFHQRTPAMCSCRQTQSGEKYSDPFKLGWRDLKGLYEDIRKELHISTRELKDMSEYYFDGKGKAFRPIIVVLMARACNIHHNNAREMQASQRSIALVAEMIHTATLVHDDVIDDASSRRGKHTVNKIWGEKKAVLAGDLILSAASVALARIGNTAVVSMLAQVIEDLVRGEFLQLGSKENENERFAHYLEKTFKKTASLIANSCKAVSVLGCPDPVVHEIAYQYGKNVGIAFQLIDDVLDFTSCSDQMGKPTSADLKLGIATGPVLFACQQFPEMNAMIMRRFSLPGDVDRARQYVLQSDGVQQTTYLAQQYCHKAVREIRKLRPSTERDALIQLSESVLTRDK
modifications: full-length
B5: Q3U0B3 (protein, UniProt Q3U0B3 1-260, looked up)
chain: MTRAGMERWRDRLALVTGASGGIGAAVARALVQQGLKVVGCARTVGNIEELAAECKSAGYPGTLIPYRCDLSNEEDILSMFSAVRSQHSGVDICINNAGMARPDTLLSGSTSGWKDMFNVNVLALSICTREAYQSMKERNIDDGHIININSMCGHRVPPQSVIHFYSATKYAVTALTEGLRQELLEAQTHIRATCISPGLVETQFAFKLHDKDPGEAAATYEHIKCLRPEDVAEAVIYVLSTPPHVQVGDIQMRPTEQVT
modifications: full-length
B6: Q3U9N9 (protein, UniProt Q3U9N9 1-512, looked up)
chain: MVPSQEEPAAERETNEAQPPGPAPSDDAPLPGPGPSDVSDVAAEKVEVELTRSAGSEPPVPPEGGWGWLVMLAAMWCNGSVFGIQNAYGVLFVSMLDTFKAKDDDNMAFKTAWVGSLSMGMIFFCCPIVSVFTDMFGCRRTAVVGAAVGFIGLMSSSFVSSIEPLYLTYGIIFACGCSFAYQPSLVILGHYFKKRLGLVNGIVTAGSSVFTILLPLLLGNLISSVKLFNTLRILCIFMFVLFLAGFTYRPLVPSTKEKESGGSRSSFFSRRKLSPPKKVFNFALFKETTYAVWAAGIPLALFGYFVPYVHLMNHVKERFQDVNNKEVLFMCIGITSGVGRLLFGRIADYLPGVKKVYLQVLSFFFIGLMSMMIPLCSAFGALIAVCLAMGLFDGCFISIMAPIAFELVGPQDASQAIGFLLGFMSIPMTVGPPIAGLLHDKLGTYDVAFYLAGIPPFVGGVVLCLIPWIHSKKQRKISKNAGGEKMEKMLENQSSLLSGSSGIFKKDSASII
modifications: full-length
B7: Q3UA16 (protein, UniProt Q3UA16 1-226, looked up)
chain: MGEDELALLNQSINEFGDKFRNRLDDNHSQVLGLRDAFKDSMKAFSEKMSLKLKEEERMTEMILEYKNQLCKQNKLIQEKKENVLKMIAEVKGKEQESEELTAKIQELKEEYARKRETISTANKANEERLKGLQKSADLYRDYLGLEIRKIHGNKLQFIFTSIDPKNPESPYMFSMSINEAKEYEVYDSSPHLECLAEFQEKVRKTNNFSAFLANIRKAFIAKVHN
modifications: full-length
B8: Q3UGF1 (protein, UniProt Q3UGF1 1-1341, looked up)
chain: MKRVFSLLEKSWLGAPIQFAWQKSSGNYLAVTGADYIVKIFDRHGQKRSEISLPGNCVTMDWDKDGDILAVIAEKSSCIYLWDANTNKTSQLDNGMRDQMSFLLWSKIGSFLAVGTIKGNLLIYNHQTSRKIPVLGKHTKKITCGCWNSENLLALGGEDKMITVSNQEGDTIRQTPVKSEPSDIKFSMSKTDERISSAENTISAVVGKKMLFLFHLNEPDNPVDLEFQQAYGNIVCYSWYGDGYIMIGFSRGTFLAISTHFPEVGQEIFKARDHKDNLTSVALSQTLNKAATCGDNCIKIHDLTELRDMYAIINLDDENKGLGTLSWTDDGQLLALSTQRGSLHVFLTKLPILGDACHTRIAYLTSLLEVTVANLIEGEPPITVSVDVEPTFVAVGLYHLAVGMNNRAWFYVLGENVVKKLKDVEYLGTVASICLHSDYAAALFEGKIQLHLIENEMLDAQEERETRLFPAVDDKCRILCHALTSDFLIYGTDTGIIHYFFIEDWQFVNDYRHPVGVKKLFPDPNGTRLVFIDEKSDGFVYCPVNDATYEIPDFSPTIKGVLWENWPMDKGVFIAYDDDKVYTYAFHKDTIQGSKVILAGSTKLPFSHKPLLLYNGELTCQTQSGKINSIYLSTHSFLGSMKDTEPTDLRQMLTQTLLLKRFSDAWDICKMLNDRTSWSELAKACLHHMEVEFAIRVSRTMGDVGTVMSLEQIKGIEDYNLLAGHLAMFTNDFNLAQDLYLASNCPVAALEMRRDLQHWDSALQLAKRLAPDQIPFISKEYAIQLEFTGDYVNALAHYEKGITGDNKEHDEVCLAGVAQMSIRMGDIRRGANQALKHPSRVLKRDCGAILENMKQFSEAAQLYEKGQYYDRAASVYIRCKNWAKVGELLPHVSSPKIHLQYAKAKEADGRYKEAVVAYENAKQWNSVIRIYLDHLNNPEKAVSIVRETQSLDGAKMVARFFLQLGDYGSAIQFLVLSKCNNEAFTLAQQHNKMEIYADIIGAEDTTNEDYQSIALYFEGEKRHFQAGKFFLLCGQYSRALKHFLKCPSSEDNVAIEMAIETVGQAKDELLTNQLIDHLMGESDGMPKDAKYLFRLYMALKQYREAARTAIIIAREEQSAGNYRNAHDVLFSMYAELKAQKIKIPSEMATNLMILHSYILVKIHVKSGDHMKGARMLIRVANNISKFPSHIVPILTSTVIECHRAGLKNSAFSFAAMLMRPEYRNKIDAKYKKKIEAMVRRPDTSETEEATTPCPFCQFLLPECELLCPGCKNNIPYCIATGRHMLKDDWTMCPHCGFPALYSEFKILLNSESTCPMCSERLNSSQLKKITDCSQYLRTEME
modifications: full-length

System: intracellular proteome of ENR+CD and ENR organoids
Assay: LC-MS/MS TMT proteomics of ENR+CD versus ENR organoids
Assay type: cell-based, C57BL/6 mice
Settings: for Average logFC / M1-1 Log2 Median Normalized / M1-2 Log2 Median Normalized / M2-1 Log2 Median Normalized / M2-2 Log2 Median Normalized: protein abundance, ENR+CD versus ENR organoids; for Average logFC: aggregate of the four sample pairs; for M1-1 Log2 Median Normalized: replicate M1-1; for M1-1 Log2 Median Normalized / M1-2 Log2 Median Normalized / M2-1 Log2 Median Normalized / M2-2 Log2 Median Normalized: log2 ratio; for M1-2 Log2 Median Normalized: replicate M1-2; for M2-1 Log2 Median Normalized: replicate M2-1; for M2-2 Log2 Median Normalized: replicate M2-2; for change: up = enriched in ENR+CD, down = enriched in ENR, FDR<0.05 and log fold change cut-off

Row | Molecule | Average logFC | M1-1 Log2 Median Normalized | M1-2 Log2 Median Normalized | M2-1 Log2 Median Normalized | M2-2 Log2 Median Normalized | change
1 | B1 | 1.307 | 1.602 | 1.092 | 1.0235 | 1.511 | up
2 | B2 | 1.146 | 1.212 | 1.255 | 1.1065 | 1.011 | up
3 | B3 | −1.48 | −1.364 | −2.41 | −1.7785 | −0.366 | down
4 | B4 | −1.389 | −1.379 | −1.779 | −1.2185 | −1.389 | down
5 | B5 | −1.3 | −1.054 | −1.691 | −1.5305 | −0.923 | down
6 | B6 | −1.314 | −1.309 | −0.055 | −1.4695 | −2.424 | down
7 | B7 | −1.826 | −1.924 | −0.747 | −1.8235 | −2.598 | down
8 | B8 | −1.153 | −0.199 | −0.895 | −1.3115 | −2.206 | down
